According to publication PMC6802964 (2019):

T1: CyPet–Myo1^IQ12S742D–YPet FRET reporter protein (S742D phosphomimetic) (S. pombe)
T1 chain: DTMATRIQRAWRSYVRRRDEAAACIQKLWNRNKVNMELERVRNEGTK

T2: CyPet–Myo1^IQ12–YPet FRET reporter protein (S. pombe)
T2 chain: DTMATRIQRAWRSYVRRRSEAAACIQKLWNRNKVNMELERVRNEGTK

T3: CyPet–Myo1^IQ1–YPet FRET reporter protein (S. pombe)
T3 chain: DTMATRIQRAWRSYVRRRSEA

T4: Myo1 IQ12 (Schizosaccharomyces pombe, UniProt Q9Y7Z8)
T4 chain: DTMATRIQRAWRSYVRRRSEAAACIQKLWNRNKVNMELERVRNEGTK


How the values were obtained:
[1] = target: T1, CyPet–Myo1^IQ12S742D–YPet FRET reporter …; assay: FRET; first site (Kd1)
[2] = target: T2, CyPet–Myo1^IQ12–YPet FRET reporter …; assay: FRET; first site (Kd1)
[3] = target: T3, CyPet–Myo1^IQ1–YPet FRET reporter …; assay: FRET
[4] = target: T1, CyPet–Myo1^IQ12S742D–YPet FRET reporter …; assay: FRET; second site (Kd2)
[5] = target: T4, Myo1 IQ12; assay: FRET
[6] = target: T1, CyPet–Myo1^IQ12S742D–YPet FRET reporter …; assay: FRET

| Kd [2] | Kd [5] | Binder | also measured |
| --- | --- | --- | --- |
|  | 1100 nM | Cam2 (protein) MPASKEQTDEMKEAFVLYDIDKDGLIPTSHVGSVLRSLGINVTDAELAKLSNELGDAIDEKKFMSFVSNKLRETESEEEYIKAFRVFDKDNSGYIETAKFADYMKTLGEKLSDNEVQLMVQEADPTNSGSFDYYDFVQRIMAK |  |
| 20 nM |  | Cam2 (calcium-insensitive calmodulin-like protein) (natural protein) MPASKEQTDEMKEAFVLYDIDKDGLIPTSHVGSVLRSLGINVTDAELAKLSNELGDAIDEKKFMSFVSNKLRETESEEEYIKAFRVFDKDNSGYIETAKFADYMKTLGEKLSDNEVQLMVQEADPTNSGSFDYYDFVQRIMAK | Kd [6]: 250 nM |

Further lines, the binder ahead of its results:

| Binder | Kd [2] | Kd [5] | also measured |
| --- | --- | --- | --- |
| Cam1 (wild type, amino-terminally acetylated fission yeast calmodulin) (natural protein, amino-terminally (Nt) acetylated) not shown | 40 nM |  | Kd [1]: 90 nM; Kd [3]: 60 nM; Kd [4]: 540 nM |
| Cam1 (protein) not shown |  | 680 nM |  |
